Measured values reported in US11667714 (MERUS N V, dated 2023).

Tests used:
[1] = target: PD-L1 on CHO cells expressing PD-L1 and a T cell activator (Promega) (UniProt Q9NZQ7 19-290); test: cell-based or functional assay
[2] = target: T1, PD-L1 on activated human T cells (human, UniProt Q9NZQ7 19-290); test: FACS on anti-CD3 activated human T cells, goat anti-human IgG-PE, MFI [upper panel]
T1 construct: whole, on cells

[3] = target: T2, PD-1 on activated human T cells (human, UniProt Q15116 25-288); test: FACS on anti-CD3 activated human T cells, goat anti-human IgG-PE, MFI [lower panel]
T2 construct: whole, on cells
T2 sequence (Q15116 25-288): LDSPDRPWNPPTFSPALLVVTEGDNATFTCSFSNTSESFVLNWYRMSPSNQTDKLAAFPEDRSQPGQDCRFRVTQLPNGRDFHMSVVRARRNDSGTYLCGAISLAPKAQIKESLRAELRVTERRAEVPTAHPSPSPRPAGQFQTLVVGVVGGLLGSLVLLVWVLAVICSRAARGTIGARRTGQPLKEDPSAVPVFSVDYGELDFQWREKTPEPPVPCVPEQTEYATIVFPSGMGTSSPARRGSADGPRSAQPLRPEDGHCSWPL

Sequence of PD-L1 on CHO cells expressing PD-L1 and a T cell activator (Promega) (Q9NZQ7 19-290): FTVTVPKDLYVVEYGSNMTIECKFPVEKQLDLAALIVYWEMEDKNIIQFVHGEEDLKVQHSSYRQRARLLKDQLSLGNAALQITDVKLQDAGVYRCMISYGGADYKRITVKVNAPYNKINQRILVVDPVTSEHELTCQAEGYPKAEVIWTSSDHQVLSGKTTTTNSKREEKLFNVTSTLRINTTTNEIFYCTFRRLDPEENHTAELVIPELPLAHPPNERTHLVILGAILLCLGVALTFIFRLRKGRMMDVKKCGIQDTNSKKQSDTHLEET
T1 sequence (Q9NZQ7 19-290): as above

Binder | AUC (PD-1/PD-L1 blockade reporter assay, monovalent) [1] | other results
MF5576xMF1337 PD-L1xTT bispecific IgG (PD-L1 monovalent) (bispecific antibody, V domains shown) VH 1: QVQLVQSGSELKKPGASVKVSCKASGYTFTSHAMNWVRQAPGQGLEWMGWINPNTGNPTYAQGFTGRFVFSLDTSVSTAYLQISSLKAEDTAVYYCAIDRGYMSNWVFAEYFPHWGQGTLVTVSS VL: not shown VH 2: not shown | 4.1 | 
MF5382xMF1337 PD-L1xTT bispecific IgG (PD-L1 monovalent) (bispecific antibody, V domains shown) VH 1: EVQLVQSGAEVKNPGSSVKVSCKATGGTFNTYGTNWVRQAPGQGLEWMGGIIPIFGTANYAQKFQGRVTITADKSTTTAYMEVSSLRSEDTAVYYCARGGADMGTLDYWGQGTLVTVSS VH 2: not shown VL: not shown | 2.9 | 
PG7689 (antibody, V domains shown, also called parental anti-PD-L1 IgG of MF6974xMF7689; MF7689 in bivalent IgG format) VH: QVQLVQSGAEVKKPGSSVRVSCKASGGTFNTYAINWVRQAPGQGLEWVGRIIPIFGTANYAQKFQGRVTISADKSTTTAYMELSSLRSEDTAVFYCAKDETGYSSSNFQHWGRGTLVTVSS VL: not shown |  | EC50 (read off the curve) [2]: ~0.04 µg/mL
MF6974 as a bivalent antibody (antibody, V domains shown, bivalent anti-PD-1 IgG; copies: 2 + 2) VH: EVQLVESGGDLVQPGGSLRLSCAASGFTFNSYAMSWVRQAPGKGLEWVSTISGGGANIYYADSVKGRFTISRDNSKSTLYLQMNSLRAEDTAVYFCASPYGSGYFDVWGQGTLVTVSS VL: not shown |  | EC50 (read off the curve) [3]: ~0.05 µg/mL
MF5359xMF1337 PD-L1xTT bispecific IgG (PD-L1 monovalent) (bispecific antibody, V domains shown) VH 1: EVQLVQSGAEVKKPGSSVKVSCKASGDTFNTYSITWVRQAPGQGLEWMGSIVPIFGTINNAQKFQGRVTITADKSANTAYMELSSLRSEDTAVYYCARDNTMVRGVDYYYMDVWGKGTMVTVSS VH 2: not shown VL: not shown | 3.9 | 
MF5557xMF1337 PD-L1xTT bispecific IgG (PD-L1 monovalent) (bispecific antibody, V domains shown) VH 1: QVQLVQSGAEVKRPGSSVKVSCKASGGTFNTYSITWVRQAPGQGLEWMGGIIPVFGTSKYAQKFQDRVTITADKSTNTAYMELSSLRSEDTAVYYCARDPSFSSSSGWFDPWGQGTLVTVSS VH 2: not shown VL: not shown | 3.4 | 
parental anti-PD-1 IgG PG7686 (antibody, V domains shown, bivalent monospecific IgG; also called MF7686 in bivalent IgG format; copies: 2 + 2) VH: QVQLVQSGAEVKKPGSSMKVSCKASGGSFSSAVISWVRQAPGQGLEWMGMIIPVFDTASYAKKFQGRVTITADKSTNTVYMELSRLRSEDAAVYYCARGTVEATLLFDYWGRGTLVTVSS VL: not shown |  | EC50 (read off the curve) [3]: ~0.04 µg/mL
